± gives the half width of the 95% confidence interval.
Tests used:
[1] = folding stability dG unfold (combined trypsin and chymotrypsin); higher = more stable
Method in brief: (§1)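 Only designs with AlphaFold2 dimer inter-PAE above 15 were retained; each was a mini-protein under 80 residues with no cysteine, in a PA-tagged cDNA display construct. After digestion with trypsin and chymotrypsin and sequencing, K50 was inferred by Bayesian fitting of counts, and unfolding free energy was derived per protease or combined against a sequence-predicted unfolded-state K50 and a shared folded-state K50.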

[2] = folding stability dG unfold from chymotrypsin proteolysis; higher = more stable
Method in brief: as §1

[3] = folding stability dG unfold from trypsin proteolysis; higher = more stable
Method in brief: as §1

Row | Sequence | folding stability dG unfold [1] | folding stability dG unfold [2] | folding stability dG unfold [3]
1 | SAGGSARPLYIKVQIRNPPNGKKKTIEIPIENMPPGDPEYYKEMARSIAEELQEQNGMEIEGIEIYSAGGSA [r15_1013_TrROS] | 0.566 ± 0.19 kcal/mol | 0.023 ± 0.27 kcal/mol | 0.731 ± 0.06 kcal/mol
2 | PDDVYVMFEIEPTNDGIKIPIKVRVPGKPIAEVEVPVDPDDGKIKIMVKFPSPEALDEAEDLLKELGIKPTS [r1_455_TrROS] | 0.537 ± 0.21 kcal/mol | 0.42 ± 0.12 kcal/mol | 0.319 ± 0.11 kcal/mol
3 | SAGADSVTYDPETNLVVVYRRVGDDVEVLVLEPVPLPVVVVVPVEDAVTRNPELRPLLEQNPDFYLVFPSAG [r5_957_TrMRF] | 2.13 ± 0.051 kcal/mol | 2.248 ± 0.022 kcal/mol | 1.88 ± 0.036 kcal/mol
4 | SAGGSATITIEVNGKPITIEFDKKNKTYTITLPNGKKVEVKVVDGELYITFANGEKRKISLKELKPSAGGSA [r15_448_TrROS_Hall] | 3.81 ± 0.17 kcal/mol | 4.34 ± 0.15 kcal/mol | 2.68 ± 0.12 kcal/mol
5 | SAGGPKITIMWPEGMPPEELENFLKKLNPNYKVEYRPMPPEDMKDMPPGDVVISIPFDGRYWYLRIKPSAGG [r13_649_TrROS] | 1.88 ± 0.081 kcal/mol | 1.99 ± 0.095 kcal/mol | 1.65 ± 0.048 kcal/mol
6 | SAGGSAGGSAGGSMITLKIPPSKPEEAEKLAKSLGAELKSFDPNTGVVDINSPPGASLESAGGSAGGSAGGS [r4_3_JUSTAS] | -0.929 ± 0.23 kcal/mol | -1.35 ± 0.74 kcal/mol | -1.25 ± 0.58 kcal/mol
7 | SAGGSAETKTVVIEVKLPEELKGLSAEELAALLAEELAKKPGVKEVTVTVERDEETDTLRVTITYPSAGGSA [r15_1029_TrROS_Hall] | 3.12 ± 0.042 kcal/mol | 2.94 ± 0.043 kcal/mol | 3.21 ± 0.05 kcal/mol
8 | SAGMIKITIITENGEEITIEIPENMSEEELKELAEKIAKEIAKKLNIPKVKIKKIKIEKIELTPEQIKKSAG [r5_377_TrROS_Hall] | 1.89 ± 0.36 kcal/mol | 1.97 ± 0.098 kcal/mol | 0.887 ± 0.077 kcal/mol
9 | SALGEEEVLRALKAAAAPLPKVEPVLRKVTVLVPETGEPFEVEVLAYRLENGEIFPVPAEATEALAEALASA [r9_1056_TrMRF] | -0.274 ± 0.19 kcal/mol | -0.1 ± 0.41 kcal/mol | -0.549 ± 0.36 kcal/mol
10 | SAGGSAGGSAGMVVTINDPKKAKKIDENSVITIPDGKKYKVVKVEVDEKNGYWTLTIEPLSAGGSAGGSAGG [r11_316_JUSTAS] | 2.18 ± 0.15 kcal/mol | 2.55 ± 0.051 kcal/mol | 1.09 ± 0.055 kcal/mol
11 | SAGGSAGGSMVLRIKTEDGEEIEIELPEELKELSAEEIAELLGLDEVKVVEVEVVEPEEEEEESAGGSAGGS [r12_411_TrROS_Hall] | 1.66 ± 0.19 kcal/mol | 2.01 ± 0.05 kcal/mol | 0.256 ± 0.043 kcal/mol
12 | SAGGSAGGSKGPVVILIFRPKYNPVKGIELEVEEVIVVSPEELSLSALGPALEEKEGYALILPSAGGSAGGS [r20_75_TrMRF] | 1.37 ± 0.038 kcal/mol | 1.32 ± 0.068 kcal/mol | 1.26 ± 0.015 kcal/mol
13 | SAGGSAGGSSDEPLVIPVTAVFVNPETGEVTVARAEVRLPPDGGLEVDVEVEVREVEPDAPLLSAGGSAGGS [r12_116_TrMRF] | 1.2 ± 0.14 kcal/mol | 1.47 ± 0.036 kcal/mol | 0.964 ± 0.025 kcal/mol
14 | SAGGATAVIADFPLPEGTLRVAVVKKDDKPYVFVFPSGISAEELKKILEEKLGVDIKKVEVKTVSTADESAG [r5_181_TrMRF] | 1.7 ± 0.093 kcal/mol | 2.04 ± 0.022 kcal/mol | 1.11 ± 0.053 kcal/mol
15 | SAGGSAGGSMEPIDLSIVEIKEELLPSGKKKYIVTIETPGKKVKKYTFPPDISIEDIKKLILNSAGGSAGGS [r20_115_JUSTAS] | 2.69 ± 0.12 kcal/mol | 2.881 ± 0.026 kcal/mol | 2.17 ± 0.11 kcal/mol
16 | SAGGSAGGSMEIIPPEELLARLSPEELVLVRLPTAPRLLPREELRLLPRDIPVEVEVIPRLPPSAGGSAGGS [r12_501_TrMRF] | 1.5 ± 0.46 kcal/mol | 2.24 ± 0.1 kcal/mol | 0.496 ± 0.23 kcal/mol
17 | SAGGSAGGSAGFNFDIELERDPNGRARVMIKIPLPNGKHYIVIYEFDPDSGKMETKIFPVSAGGSAGGSAGG [r11_107_TrROS] | 3.43 ± 0.19 kcal/mol | 3.82 ± 0.12 kcal/mol | 3.07 ± 0.086 kcal/mol
18 | SAGGMKIKDFEPVRVDENGMYVIDLKYEDPDNGNEYQVEFMIPNPPGNMHPITFTMKSPEDALDEILKSAGG [r13_26_TrROS] | -0.445 ± 0.13 kcal/mol | -0.325 ± 0.28 kcal/mol | -0.845 ± 0.27 kcal/mol
19 | SAGMKKGDKFTVEFDLDPETRAEVEALLAAPGFAAEFDPSTGRLTLTLPSEIIDEVKKFPHIKKITKISAGG [r19_212_JUSTAS] | 1.68 ± 0.083 kcal/mol | 1.79 ± 0.044 kcal/mol | 1.05 ± 0.068 kcal/mol
20 | SAGGSAGGSMTTSTEVVELSGGSSLTVEREYTVEEVKVDDKWETVTHEVVTTPDSTTVREIKPSAGGSAGGS [r12_128_JUSTAS] | 0.526 ± 0.19 kcal/mol | 0.621 ± 0.068 kcal/mol | 0.233 ± 0.063 kcal/mol
21 | SMEELLEKALEEAKEAAEKGEKTVIIEIRVDGKTFRIEIDVETGEIVKIEKEKREDGSEIFRIEIKLPEPSA [r9_308_TrROS_Hall] | 1.3 ± 0.39 kcal/mol | 1.61 ± 0.086 kcal/mol | 0.695 ± 0.07 kcal/mol
